One assay deals with HLA-C*07:02. The assay is described as follows: IEDB peptide-MHC binding, purified MHC/direct/fluorescence; filed as Kd, often an IC50 or EC50 that approximates it; ≥ and ≤ were set here for values at or beyond the usual limits of such assays. To be noted: source organism: SARS-CoV1.
A further assay has as its target HLA-A*30:02. The assay is described as follows: IEDB peptide-MHC binding, purified MHC/competitive/radioactivity; filed as Kd, often an IC50 or EC50 that approximates it; ≥ and ≤ were set here for values at or beyond the usual limits of such assays. To be noted: source organism: SARS coronavirus Tor2.
Another assay deals with HLA-A*29:02. The assay is described as above. To be noted: source organism: SARS coronavirus Tor2.
Assay [1] deals with HLA-A*26:01. The assay is described as above. Conditions: source organism: SARS coronavirus Tor2.
Another assay concerns the target HLA-A*23:01. Described as above. To be noted: source organism: SARS coronavirus Tor2.
For assay [2], the target named is HLA-A*01:01. Described as above. Conditions: source organism: SARS coronavirus Tor2.
The target in a further assay is HLA-A*24:02. Kind of assay: IEDB peptide-MHC binding, purified MHC/competitive/fluorescence; filed as Kd, often an IC50 or EC50 that approximates it; ≥ and ≤ were set here for values at or beyond the usual limits of such assays. Conditions: source organism: SARS-CoV1.
The target of another assay is HLA-B*58:01. Kind of assay: IEDB peptide-MHC binding, purified MHC/direct/fluorescence; filed as Kd, often an IC50 or EC50 that approximates it; ≥ and ≤ were set here for values at or beyond the usual limits of such assays.
A further assay addresses HLA-B*08:01. The assay is described as above.
In another assay the target is HLA-B*40:01. Described as above.
Assay [3] deals with HLA-A*26:01. The description is as above.
In a further assay the target is HLA-A*69:01. The description is as above.
Assay [4] concerns the target HLA-A*11:01. Described as above.
The target of a further assay is HLA-B*27:05. The description is as above.
Assay [5] concerns the target HLA-B*07:02. The assay is described as above. Conditions: source organism: Giardia lamblia ATCC 50803.
The target in a further assay is HLA-A*03:01. The description is as above.
A further assay concerns the target HLA-B*44:02. The assay is described as above. Conditions: source organism: Giardia lamblia ATCC 50803.
For assay [6], the target named is HLA-B*15:01. The assay is described as above.
The target of the next assay is HLA-A*02:01. The description is as above.
For the next assay, the target named is HLA-A*30:01. The assay is described as above.
In assay [7] the target is HLA-A*01:01. Described as above.
The target of a further assay is HLA-B*46:01. The assay is described as above. To be noted: source organism: Camelpox virus M-96.
The target in the next assay is HLA-B*39:01. Described as above. Conditions: source organism: Camelpox virus M-96.
The target in another assay is HLA-B*38:01. The description is as above. Conditions: source organism: Variola virus.
In the next assay the target is HLA-B*57:01. The description is as above. Conditions: source organism: Camelpox virus M-96.
The next assay concerns the target HLA-A*68:02. The assay is described as above. To be noted: source organism: Camelpox virus M-96.
For the next assay, the target named is HLA-B*08:03. Described as above. Conditions: source organism: Variola virus.
A further assay has as its target HLA-B*08:02. Described as above. Conditions: source organism: Variola virus.
The target of another assay is HLA-B*48:01. The description is as above. Conditions: source organism: Camelpox virus M-96.
Assay [8] has as its target HLA-A*11:01. Kind of assay: IEDB peptide-MHC binding, purified MHC/competitive/fluorescence; ≥ and ≤ were set here for values at or beyond the usual limits of such assays. To be noted: source organism: Variola virus.
Another assay deals with HLA-B*35:01. The assay is described as follows: IEDB peptide-MHC binding, purified MHC/competitive/fluorescence; filed as Kd, often an IC50 or EC50 that approximates it; ≥ and ≤ were set here for values at or beyond the usual limits of such assays. Conditions: source organism: Vaccinia virus WR.
Another assay addresses HLA-B*15:17. Described as above. To be noted: source organism: Vaccinia virus WR.
The target in another assay is HLA-B*18:01. The description is as above. Conditions: source organism: Vaccinia virus WR.
Assay [9] has as its target HLA-B*07:02. The assay is described as above. To be noted: source organism: Vaccinia virus WR.
For assay [10], the target named is HLA-B*15:01. The description is as above. Conditions: source organism: Vaccinia virus WR.
The next assay addresses HLA-A*26:02. Described as above. To be noted: source organism: Vaccinia virus WR.
Assay [11] addresses HLA-A*01:01. The assay is described as above. Conditions: source organism: Vaccinia virus WR.
In another assay the target is HLA-A*31:01. Kind of assay: IEDB peptide-MHC binding, purified MHC/direct/fluorescence; filed as Kd, often an IC50 or EC50 that approximates it; ≥ and ≤ were set here for values at or beyond the usual limits of such assays. To be noted: source organism: Corynebacterium glutamicum.
The next assay concerns the target HLA-A*24:03. Described as above. Conditions: source organism: Corynebacterium glutamicum.
[12] abbreviates: source organism: Giardia lamblia ATCC 50803.
Where [13] appears, read: source organism: Camelpox virus M-96.
The mark [14] stands for this setting: source organism: Corynebacterium glutamicum.

For four sequences, Kd and IC50 results are on record in the Immune Epitope Database (IEDB).

Usually Kd stands for the equilibrium constant for the complex coming apart. In the case of NYMPYVFTL, the Kd is at most 1 nM with HLA-C*07:02; 18.2 µM with HLA-A*30:02; 369 nM with HLA-A*29:02; at least 51.8 µM in the assay with HLA-A*26:01 [1]; 6.37 nM in the assay with HLA-A*23:01; at least 78.1 µM with HLA-A*01:01 [2]. In addition, in the assay with HLA-A*24:02, the Kd is at most 0.1 nM.

With ASSWAPTQK, the Kd was at least 20 µM with HLA-B*58:01 (setting [12]); at least 20 µM with HLA-B*08:01 (setting [12]); at least 20 µM with HLA-B*40:01 (setting [12]); at least 20 µM with HLA-A*26:01 [3] (setting [12]); at least 20 µM in the assay with HLA-A*69:01 (setting [12]); 17.5 nM in the assay with HLA-A*11:01 [4] (setting [12]). Also, the equilibrium dissociation constant (Kd) with HLA-B*27:05 (setting [12]) is at least 20 µM; with HLA-B*07:02 [5] it was at least 20 µM; in the assay with HLA-A*03:01 (setting [12]), 510 nM; with HLA-B*44:02, at least 20 µM; in the assay with HLA-B*15:01 [6] (setting [12]), at least 20 µM; with HLA-A*02:01 (setting [12]), at least 20 µM. Moreover, the Kd with HLA-A*30:01 (setting [12]) was 4.14 µM; in the assay with HLA-A*01:01 [7] (setting [12]) it was at least 20 µM.

In general, IC50 refers to the concentration at which inhibition is half-maximal. Lower therefore signals greater potency in that assay. As to IHIPGDTLF, the equilibrium dissociation constant (Kd) in the assay with HLA-B*58:01 (setting [13]), in the assay with HLA-B*46:01, in the assay with HLA-B*08:01 (source organism: Variola virus), with HLA-B*40:01 (setting [13]), with HLA-A*26:01 [3] (source organism: Variola virus) and with HLA-A*69:01 (setting [13]) was at least 20 µM in each case. In addition, the Kd in the assay with HLA-B*39:01 was at least 20 µM; with HLA-B*27:05 (setting [13]), at least 20 µM; with HLA-B*38:01 it was 392 nM; with HLA-B*57:01 it was at least 20 µM; with HLA-A*02:01 (setting [13]), at least 20 µM; with HLA-A*68:02, at least 20 µM. For the same sequence, the Kd in the assay with HLA-B*08:03 was at least 20 µM; with HLA-B*08:02 it was at least 20 µM; with HLA-B*48:01, at least 20 µM; with HLA-B*35:01 it was 366 nM; in the assay with HLA-B*15:17, at least 20 µM; with HLA-B*18:01, at least 20 µM. The Kd is at least 5 µM with HLA-B*07:02 [9], at least 20 µM in the assay with HLA-B*15:01 [10], at least 20 µM with HLA-A*26:02 and at least 20 µM with HLA-A*01:01 [11]. This sequence also gave an IC50 with HLA-A*11:01 [8] of at least 152 µM.

Take VHDREGNEV: the dissociation constant (Kd) with HLA-B*58:01 (setting [14]) is at least 20 µM; with HLA-B*08:01 (setting [14]) it was at least 20 µM; in the assay with HLA-B*40:01 (setting [14]) it was at least 20 µM; with HLA-A*26:01 [3] (setting [14]), at least 20 µM; with HLA-A*69:01 (setting [14]), at least 20 µM; with HLA-A*11:01 [4] (setting [14]), at least 20000 nM. For the same sequence, the dissociation constant (Kd) with HLA-B*27:05 (setting [14]) is at least 20 µM; with HLA-A*31:01, at least 20 µM; with HLA-A*24:03 it was at least 20 µM; with HLA-A*03:01 (setting [14]), at least 20000 nM; with HLA-B*15:01 [6] (setting [14]), at least 20 µM; with HLA-A*02:01 (setting [14]) it was at least 20 µM. Also, the results for the dissociation constant Kd with HLA-A*30:01 (setting [14]) and with HLA-A*01:01 [7] (setting [14]) were 4.84 µM and at least 20 µM, respectively.
